B1: humanized 3B9 (IgG4 variant) (antibody, V domains shown)
VH: QVTLRESGPALVKPTQTLTLTCTFSGFSLSTSGMGVSWIRQPPGKGLEWLAHIYWDDDKRYNPSLKSRLTISKDTSRNQVVLTMTNMDPVDTATYYCARRETVFYWYFDVWGRGTPVTVSS
VL: IVMTQSPDSLAVSLGERATINCKASQSVDYDGDSYMNWYQQKPGQPPKLLIYAASNLESGVPDRFSGSGSGTDFTLTISSLQAEDVAVYYCQQSNEDPPRFGGGTKVEIKR
B2: humanized 3B9 (IgG1) (antibody, V domains shown)
VH: B1 VH
VL: B1 VL
notes: Human IgG1 heavy constant region and human kappa constant region; also called humanized MAb 3B9; 3B9 (Humanized)
B3: recombinant human IL4 (non-glycosylated, produced in E. coli) (ligand, UniProt P05112 25-153, looked up)
chain: HKCDITLQEIIKTLNSLTEQKTLCTELTVTDIFAASKNTTEKETFCRAATVLRQFYSHHEKDTRCLGATAQQFHRHKQLIRFLKRLDRNLWGLAGLNSCPVKEANQSTLENFLERLKTIMREKYSKCSS
notes: also called hIL4; hIL-4

Test [1] concerns the target B3. Put plainly: cell-based or functional assay.
The target in test [2] is B3. Put plainly: titration microcalorimetry, pH 7.4, 150 mM NaCl, 25° C. As for the experimental part:
(§1) The affinity and detailed thermodynamics of IL4 binding to humanized MAb 3B9 and murine 3B9 (Example 1) were determined by titration microcalorimetry.

Test [3] deals with B3. Put plainly: titration microcalorimetry, calculated for pH 7.4, 150 mM NaCl, 25° C. by the Gibbs-Helmholz equation. As for the experimental part:
as §1

Test [4] addresses T1, IL4 receptor on the gibbon cell line MLA [ATCC TIB201] (gibbon).
T1 construct: whole, on cells; also called its receptor
Put plainly: displacement of 125I-rhIL4 (83 pM) from gibbon MLA cells. As for the experimental part: The ability of 3B9 to inhibit the binding of IL4 to its receptor was studied using ¹²⁵I-rhIL4 binding to the gibbon cell line, MLA [ATCC TIB201], that bears approximately 6000 receptors per cell. MLA cells were incubated with […] for 30 minutes at 37° C. Uptake of radioactivity was determined in a gamma counter after separation of cell bound ¹²⁵I-IL4 by centrifugation through an oil-gradient. Non-specific binding was determined by incubating in the presence of a 100-fold molar excess of unlabelled IL4 [Park et al, J. Exp. Med., 166:476-488 (1987)]. The IC₅₀ value for unlabeled IL4 in this assay was 22 pM when the amount of (added) IL4 was 83 pM. For intact murine (IgG) 3B9 the IC₅₀ was 63 pM, and 93 pM for the Fab fragment.
(Displacement assays read how much labelled ligand stays bound in the presence of the test substance.)

Several values for one entry are separate records, joined by “and”; a condition that tells them apart may be missing. Identical values can stand only once.

As to B1, in test [1], the “IC50, B cell proliferation” value was determined as 0.079 nM; the “IC50, IgE synthesis” value is 0.406 nM; the “IC50, T cell proliferation” value came to 0.04 nM.

In the case of B2, in test [1], the “IC50, CD23 induction” value was determined as 0.333 nM; the “IC50, IgE synthesis” value is 0.054 nM and 0.035 nM and 0.083 nM; the “IC50, T cell proliferation” value was 0.044 nM and 0.03 nM and 0.056 nM. Also, in test [2], the “-TΔS” value worked out at 8.2 kcal/mol IL4, the ΔG was -13.6 kcal/mol IL4 and the ΔH is -21.8 kcal/mol IL4. The Kd in test [3] is 0.011 nM.

B3: the IC50 in test [4] stood at 0.022 nM.

In general, Kd refers to a measure of binding affinity in units of concentration. As usually defined, the IC50 is the concentration that inhibits the measured activity by half. Lower therefore signals higher potency.

The values above are taken from patent US20050002959A1 (GlaxoSmithKline, published 2005).
